Results: patent publication US20260234290

Key:
Assay in all cases: BLI
2B12 Fab = details: 2 uM Fab; RT; weak binder; printed as second 3B12 in Table 4, 2B12 in text
3C8 Fab = details: 2 uM Fab; RT; described as weak binding
3B11 Fab = details: 2 uM Fab; RT; described as weak binding
3B12 Fab = details: 2 uM Fab; RT; described as weak binding
2C11 Fab = details: 2 uM Fab; RT; weak binder

CATTTCCCGTAAATC (double strand) [CS3D (cyclic STAT3 decoy)]
koff (2B12 Fab): 0.37 s⁻¹
koff (3C8 Fab): 0.277 s⁻¹
koff (3B11 Fab): 0.205 s⁻¹
koff (3B12 Fab): 0.0764 s⁻¹
koff (2C11 Fab): 0.419 s⁻¹
